Consider four molecules from PMC13199644, “Optimized Quantitative Bacterial Two-Hybrid (qB2H) for Protein–Protein Interaction Assessment” (Computational and Structural Biotechnology Journal, 2026).

This experiment has as its target T1, Recombinant human ASF1AN (residues 1 to 156) (human, UniProt Q9Y294 1-156).
T1 construct: N-terminal domain of human ASF1A, UniProt Q9Y294, residues 1 to 156; Unlabeled for ITC; uniformly 15N- and/or 15N-13C-labeled for NMR; Made from pETM30 with a TEV cleavage site; also called hASF1AN; 15N-ASF1AN; source: E. coli, purified (glutathione agarose, TEV cleavage, Ni-NTA flow-through, Resource Q); not shown: His6, N-terminal, cleaved; GST, N-terminal, cleaved
Description: ITC; VP-ITC, 20 °C, 50 mM tris-HCl pH 7.5; binder injected into the ASF1 solution; One Set of Sites model; duplicate. The settings on record: both partners purified.

Changes are numbered by the printed parent chain.

T1 sequence (Q9Y294 1-156): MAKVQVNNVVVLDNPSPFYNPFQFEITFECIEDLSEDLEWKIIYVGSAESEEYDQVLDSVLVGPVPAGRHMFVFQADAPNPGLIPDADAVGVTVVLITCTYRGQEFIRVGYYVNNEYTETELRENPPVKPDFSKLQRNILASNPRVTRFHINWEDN

B1: T32_Kan[209]_top1 (AEEEAARFAALLAALP-GSK-ip4_mutG), purified peptide (designed binder)
peptide: AEEEAARFAALLAALPGSKWARLARRTAGAGGVTLNGAG
notes: designed N-terminal extension; linker; ip4_mutG; source: E. coli BL21(DE3) Star, purified (Ni-NTA, SUMO protease, Resource RPC, Superdex 30); not shown: His6, N-terminal, cleaved; SUMO, N-terminal, cleaved
Take B1: the Kd (in general, the free concentration of one partner at which half of the binding sites on the other are occupied at equilibrium, for simple one-to-one binding) stood at 152 ± 25 nM.

B2: Kan[348]_top2 (AAAERARFAALLAKLP-GSK-ip4_mutG), purified peptide (designed binder)
peptide: B1 peptide with E2A, E3A, A5R, A14K
notes: as for B1
For B2, the Kd was 581 ± 98 nM.

B3: ip4_mutG (peptide)
peptide: WARLARRTAGAGGVTLNGAG
notes: also called constant C-terminal scaffold
For B3, the Kd is 10600 ± 1000 nM.

B4: Kan[348]_top1 (SAAARWAAALAALP-GSK-ip4_mutG), purified peptide (designed binder)
peptide: SAAARWAAALAALPGSKWARLARRTAGAGGVTLNGAG
notes: as for B1
B4: the Kd was 235 ± 26 nM.
